± gives the standard deviation of the averaged measurements.

The data set deals with Saccharomyces cerevisiae. Kind of data set: protein stability index of tFT-peptide fusion (C-terminal peptide) (PSI (0-1 scale)); higher = more stable (slower turnover). To be noted: temperature: 30 C. How it is done:
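MPS profiling in S. cerevisiae of the yeast C-terminome library: the last 12 aa of each annotated ORF are fused to the C-terminus of a sfGFP-mCherry timer, after a GGGS linker. Cells are FACS-sorted into 8 mCherry/sfGFP bins and deep-sequenced. PSI runs from 0 (unstable) to 1 (stable); wild type and das1Δ backgrounds, two technical replicates each.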

The mark [1] stands for this setting: genetic background: das1 deletion.

DCLEGMLELEKL [DSS1 C-terminal 12 aa]: the protein stability index reads like this: under setting [1], 0.698 ± 0.025; (genetic background: wild type) 0.677 ± 0.041.

Regarding DDDNEDVEMSDA [NOC2 C-terminal 12 aa], the protein stability index runs as follows: under setting [1], 0.66818 ± 0.00066; (genetic background: wild type) 0.693 ± 0.057.

For DDEDEEDDDFKE [CHZ1 C-terminal 12 aa], the protein stability index reads like this: under setting [1], 0.725 ± 0.021; (genetic background: wild type) 0.671 ± 0.017.

As to DDYAQYLDQDSD [MAK21 C-terminal 12 aa], the protein stability index reads like this: under setting [1], 0.7147 ± 0.004; (genetic background: wild type) 0.671 ± 0.011.

For the sequence DEDEDDSTTKEP [GLC8 C-terminal 12 aa], the protein stability index by setting is: under setting [1], 0.679 ± 0.011; (genetic background: wild type) 0.7 ± 0.026.

Turning to DEDLWEEQEVCP [YGR017W C-terminal 12 aa], the protein stability index is, setting by setting: under setting [1], 0.702 ± 0.0037; (genetic background: wild type) 0.709 ± 0.011.

As for “DELSLRPATERI [YGR038C-E C-terminal 12 aa]”, the protein stability index was found to be 0.739 ± 0.23 under setting [1] and 0.571 (genetic background: wild type).

For DFNDSSNLKKTR [CLN3 C-terminal 12 aa], the protein stability index is, setting by setting: under setting [1], 0.7398 ± 0.0057; (genetic background: wild type) 0.693 ± 0.039.

In turn, DGEFVVSDLRLR [YOR283W C-terminal 12 aa] returned a protein stability index under setting [1] of 0.708 ± 0.0071 and a protein stability index (genetic background: wild type) of 0.682 ± 0.015.

As for DGGVKRIRVWGY [DAL2 C-terminal 12 aa], the protein stability index amounted to 0.706 ± 0.024 under setting [1] and 0.703 ± 0.054 (genetic background: wild type).

Consider DGVENTPVESQQ [NMD3 C-terminal 12 aa], for which the protein stability index reads like this: under setting [1], 0.6821 ± 0.0024; (genetic background: wild type) 0.707 ± 0.0061.

In the case of DIFSRFSIILKC [YPR136C C-terminal 12 aa], the protein stability index is, setting by setting: under setting [1], 0.413 ± 0.017; (genetic background: wild type) 0.281 ± 0.012.

Take DIRAHLAEYYSF [PAU7 C-terminal 12 aa]: the protein stability index by setting is: under setting [1], 0.728 ± 0.026; (genetic background: wild type) 0.687 ± 0.011.

Consider DKLGFLDRRRNE [COI1 C-terminal 12 aa], for which the protein stability index is, setting by setting: under setting [1], 0.683 ± 0.036; (genetic background: wild type) 0.668 ± 0.043.

With DKRNLLEILDFS [RRT13 C-terminal 12 aa], the protein stability index is, setting by setting: under setting [1], 0.72 ± 0.021; (genetic background: wild type) 0.695 ± 0.029.

Take DKSCIDIRSIIH [YAP5 C-terminal 12 aa]: the protein stability index is, setting by setting: under setting [1], 0.706 ± 0.011; (genetic background: wild type) 0.726 ± 0.041.

Take DLEDEIEMEDVV [TFG2 C-terminal 12 aa]: the protein stability index under setting [1] was determined as 0.699 ± 0.027 and the protein stability index (genetic background: wild type) came out at 0.711 ± 0.046.

As for DLLNKESEYLNI [FAR11 C-terminal 12 aa], the protein stability index under setting [1] amounted to 0.705 ± 0.012 and the protein stability index (genetic background: wild type) is 0.755 ± 0.061.

As to DLRCLKYKYKNA [YGR016W C-terminal 12 aa], the protein stability index by setting is: under setting [1], 0.695 ± 0.011; (genetic background: wild type) 0.348 ± 0.028.

Consider DLVAQQVVQDGH [MYO2 C-terminal 12 aa], for which the protein stability index reads like this: under setting [1], 0.7005 ± 0.0019; (genetic background: wild type) 0.707 ± 0.019.

DMMMLFGAEGDE [TAF7 C-terminal 12 aa]: the protein stability index stood at 0.72102 ± 0.00011 under setting [1] and 0.707 ± 0.027 (genetic background: wild type).

Regarding DNFINSVKLNFR [SEC10 C-terminal 12 aa], the protein stability index reads like this: under setting [1], 0.6945 ± 0.0052; (genetic background: wild type) 0.734 ± 0.022.

“DPFDTNLSIKLS [YMR075C-A C-terminal 12 aa]” had a protein stability index under setting [1] of 0.696 ± 0.026 and a protein stability index (genetic background: wild type) of 0.6827 ± 0.0066.

Take DQTRDFGTSMEL [FOB1 C-terminal 12 aa]: the protein stability index reads like this: under setting [1], 0.706 ± 0.0098; (genetic background: wild type) 0.712 ± 0.0086.

For DTVLRKFADYKI [MPS1 C-terminal 12 aa], the protein stability index amounted to 0.7043 ± 0.0052 under setting [1] and 0.679 ± 0.032 (genetic background: wild type).

With DVKLLPPPKKRN [NUC1 C-terminal 12 aa], the protein stability index came to 0.67982 ± 0.00038 under setting [1] and 0.6883 ± 0.0014 (genetic background: wild type).

On to EAASDEHFSRVV [YGL185C C-terminal 12 aa], for which the protein stability index came out at 0.709 ± 0.02 under setting [1] and 0.733 ± 0.021 (genetic background: wild type).

Regarding “ECPRFSNKHGRN [YDR169C-A C-terminal 12 aa]”, the protein stability index by setting is: under setting [1], 0.701 ± 0.0084; (genetic background: wild type) 0.681 ± 0.014.

Turning to EDDEDGSGVEYD [RTT106 C-terminal 12 aa], the protein stability index reads like this: under setting [1], 0.694 ± 0.009; (genetic background: wild type) 0.7 ± 0.062.

As to EDKDSESFSEVC [YCG1 C-terminal 12 aa], the protein stability index runs as follows: under setting [1], 0.702 ± 0.016; (genetic background: wild type) 0.705 ± 0.011.

Regarding EDNDYELIFMNV [PML1 C-terminal 12 aa], the protein stability index under setting [1] is 0.7194 ± 0.0068 and the protein stability index (genetic background: wild type) was 0.712 ± 0.019.

Take EDVDEDTTPFNV [YTP1 C-terminal 12 aa]: the protein stability index by setting is: under setting [1], 0.7138 ± 0.0053; (genetic background: wild type) 0.684 ± 0.013.

On to EDVEVPFITIHL [UBA1 C-terminal 12 aa], for which the protein stability index turned out to be 0.6884 ± 0.0057 under setting [1] and 0.683 ± 0.017 (genetic background: wild type).

EDVKEEESKVGA [IOC4 C-terminal 12 aa]: the protein stability index runs as follows: under setting [1], 0.691 ± 0.033; (genetic background: wild type) 0.664 ± 0.0082.

Consider EDYAYWGNRQLY [PER1 C-terminal 12 aa], for which the protein stability index by setting is: under setting [1], 0.7133 ± 0.0036; (genetic background: wild type) 0.743 ± 0.038.

In the case of EEDEEDEENEEQ [UBX2 C-terminal 12 aa], the protein stability index stood at 0.716 ± 0.016 under setting [1] and 0.693 ± 0.043 (genetic background: wild type).

Turning to EEGPFKADHYRY [SAH1 C-terminal 12 aa], the protein stability index was determined as 0.701 ± 0.011 under setting [1] and 0.694 ± 0.033 (genetic background: wild type).

Consider “EEQINGKRKRKD [YJR107C-A C-terminal 12 aa]”, for which the protein stability index is, setting by setting: under setting [1], 0.672 ± 0.0096; (genetic background: wild type) 0.674 ± 0.022.

As for EFIFRESRKHNV [ERP3 C-terminal 12 aa], the protein stability index is, setting by setting: under setting [1], 0.728 ± 0.058; (genetic background: wild type) 0.71 ± 0.061.

For EFSTLFDDYKDN [YRR1 C-terminal 12 aa], the protein stability index is, setting by setting: under setting [1], 0.7429 ± 0.0055; (genetic background: wild type) 0.767 ± 0.022.

In the case of EGEISKGAENAT [YDR444W C-terminal 12 aa], the protein stability index runs as follows: under setting [1], 0.676 ± 0.015; (genetic background: wild type) 0.689 ± 0.011.

EHKLGNTKYFED [ARP5 C-terminal 12 aa]: the protein stability index by setting is: under setting [1], 0.693 ± 0.01; (genetic background: wild type) 0.687 ± 0.023.

Take EILGTDEPTVRT [PGM1 C-terminal 12 aa]: the protein stability index by setting is: under setting [1], 0.693 ± 0.015; (genetic background: wild type) 0.7 ± 0.014.

Regarding EISNRDENSIPE [MUB1 C-terminal 12 aa], the protein stability index runs as follows: under setting [1], 0.7214 ± 0.004; (genetic background: wild type) 0.677 ± 0.026.

As for EKAERRKLSQGR [QRI5 C-terminal 12 aa], the protein stability index is, setting by setting: under setting [1], 0.686 ± 0.02; (genetic background: wild type) 0.6807 ± 0.002.

Turning to EKANDIGFHKYR [RPS29B C-terminal 12 aa], the protein stability index by setting is: under setting [1], 0.6797 ± 0.0058; (genetic background: wild type) 0.648 ± 0.027.

For EKIKKILSELKK [NKP1 C-terminal 12 aa], the protein stability index was 0.705 ± 0.022 under setting [1] and 0.715 ± 0.021 (genetic background: wild type).

Take EKKSKKEKKEKK [NOP58 C-terminal 12 aa]: the protein stability index runs as follows: under setting [1], 0.747 ± 0.07; (genetic background: wild type) 0.717 ± 0.04.

In the case of EKLILAKKDQPN [IST3 C-terminal 12 aa], the protein stability index reads like this: under setting [1], 0.6926 ± 0.0055; (genetic background: wild type) 0.709 ± 0.046.

As for EKMLAAPHQNKV [SPR28 C-terminal 12 aa], the protein stability index came to 0.696 ± 0.015 under setting [1] and 0.6924 ± 0.001 (genetic background: wild type).

On to EKPKKKEVEKTA [NOG2 C-terminal 12 aa], for which the protein stability index came to 0.684 ± 0.012 under setting [1] and 0.688 ± 0.018 (genetic background: wild type).

As for EKWASQFGSSGS [SAP1 C-terminal 12 aa], the protein stability index was found to be 0.702 ± 0.024 under setting [1] and 0.685 ± 0.014 (genetic background: wild type).

The sequence ELASYILKELNL [KIN2 C-terminal 12 aa] registered a protein stability index under setting [1] of 0.731 ± 0.028 and a protein stability index (genetic background: wild type) of 0.702 ± 0.064.

On to ELKKIILESSMK [EXO5 C-terminal 12 aa], for which the protein stability index reads like this: under setting [1], 0.698 ± 0.059; (genetic background: wild type) 0.68 ± 0.011.

For the sequence ELLYIIDHLSEL [BTS1 C-terminal 12 aa], the protein stability index turned out to be 0.693 ± 0.023 under setting [1] and 0.67 ± 0.015 (genetic background: wild type).

The sequence EMKHSLFRNPFH [PIG2 C-terminal 12 aa] gave a protein stability index under setting [1] of 0.705 ± 0.014 and a protein stability index (genetic background: wild type) of 0.678 ± 0.015.

EPLKESIFNQLK [MRPL23 C-terminal 12 aa]: the protein stability index was found to be 0.694 ± 0.013 under setting [1] and 0.678 ± 0.059 (genetic background: wild type).

Take EQGGEGVQCASQ [YDJ1 C-terminal 12 aa]: the protein stability index reads like this: under setting [1], 0.686 ± 0.014; (genetic background: wild type) 0.69 ± 0.045.

ERDNWWVVAQKR [TRM9 C-terminal 12 aa]: the protein stability index runs as follows: under setting [1], 0.744 ± 0.023; (genetic background: wild type) 0.723 ± 0.012.

Consider ERINFVCETYGL [AIM14 C-terminal 12 aa], for which the protein stability index worked out at 0.7 ± 0.018 under setting [1] and 0.7 ± 0.027 (genetic background: wild type).

The sequence ERNPSQRPQRRY [RPS10B C-terminal 12 aa] yielded a protein stability index under setting [1] of 0.686 ± 0.0083 and a protein stability index (genetic background: wild type) of 0.679 ± 0.066.

With ERPQDWFEDIGE [FCY1 C-terminal 12 aa], the protein stability index reads like this: under setting [1], 0.7168 ± 0.0043; (genetic background: wild type) 0.686 ± 0.017.

Regarding ESFEKQGKIIYN [MOB2 C-terminal 12 aa], the protein stability index by setting is: under setting [1], 0.681 ± 0.0097; (genetic background: wild type) 0.685 ± 0.042.

As to ESSKDVKRNNKD [SDH7 C-terminal 12 aa], the protein stability index was found to be 0.691 ± 0.012 under setting [1] and 0.702 ± 0.03 (genetic background: wild type).

Regarding ETARNLAEYNGE [SEC72 C-terminal 12 aa], the protein stability index is, setting by setting: under setting [1], 0.701 ± 0.013; (genetic background: wild type) 0.728 ± 0.0056.

ETGHISKDCPKA [GIS2 C-terminal 12 aa]: the protein stability index reads like this: under setting [1], 0.698 ± 0.018; (genetic background: wild type) 0.695 ± 0.013.

Sequence ETNFWTAAMEYE [THI22 C-terminal 12 aa] had a protein stability index under setting [1] of 0.717 ± 0.011 and a protein stability index (genetic background: wild type) of 0.701 ± 0.014.

Values taken from the supplement of paper PMC10724198.
